Our source for the Kd, koff and kon values is patent EP4725969A1 (Latticon (Suzhou) Biopharmaceuticals Co., Ltd., dated 2024).

B1: 2126-Hu-L04 (antibody, IgG1, V domains shown)
VH: QVQLVQSGSELKKPGASVKVSCKASGYTFTDYSMHWVRQAPGQGLEWMGWINTETGEPTYADDFKGRFVFSLDTSVSTAYLQISSLKAEDTAVYFCVRVGRYDYAMDYWGQGTTVTVSS
VL: DIQMTQSPSSLSASVGDRVTITCKASQDVYTYVAWYQQKPGKAPKLLINSASYRYTGVPSRFSGSGSGTDFTLTISSLQPEDFATYYCQQHYSTPPTFGGGTKVEIK
notes: IgG1/Cκ
B2: 2126-Hu-L06 (antibody, IgG1, V domains shown)
VH: QVQLVQSGSELKKPGASVKVSCKASGYTFTDYSMHWVRQAPGQGLEWMGWINTETGEPTYADDFKGRFVFSLDTSVSTAYLQISSLKAEDTAVYFCVRVGRYDYAMDYWGQGTTVTVSS
VL: DIQMTQSPSSLSASVGDRVTITCKASQDVYTAVAWYQQKPGKAPKLLINAASYRYTGVPSRFSGSGSGTDFTLTISSLQPEDFATYYCQQHYSTPPTFGGGTKVEIK
notes: IgG1/Cκ
B3: 2126-Hu-L13 (antibody, IgG1, V domains shown)
VH: QVQLVQSGSELKKPGASVKVSCKASGYTFTDYSMHWVRQAPGQGLEWMGWINTETGEPTYADDFKGRFVFSLDTSVSTAYLQISSLKAEDTAVYFCVRVGRYDYAMDYWGQGTTVTVSS
VL: DIQMTQSPSSLSASVGDRVTITCKASQDVYTAVAWYQQKPGKAPKLLINSASTRYTGVPSRFSGSGSGTDFTLTISSLQPEDFATYYCQQHYSTPPTFGGGTKVEIK
notes: IgG1/Cκ
B4: 2126-Hu-L12 (antibody, IgG1, V domains shown)
VH: QVQLVQSGSELKKPGASVKVSCKASGYTFTDYSMHWVRQAPGQGLEWMGWINTETGEPTYADDFKGRFVFSLDTSVSTAYLQISSLKAEDTAVYFCVRVGRYDYAMDYWGQGTTVTVSS
VL: DIQMTQSPSSLSASVGDRVTITCKASQDVYTAVAWYQQKPGKAPKLLINSASSRYTGVPSRFSGSGSGTDFTLTISSLQPEDFATYYCQQHYSTPPTFGGGTKVEIK
notes: IgG1/Cκ
B5: 2126-Hu-L09 (antibody, IgG1, V domains shown)
VH: QVQLVQSGSELKKPGASVKVSCKASGYTFTDYSMHWVRQAPGQGLEWMGWINTETGEPTYADDFKGRFVFSLDTSVSTAYLQISSLKAEDTAVYFCVRVGRYDYAMDYWGQGTTVTVSS
VL: DIQMTQSPSSLSASVGDRVTITCKASQDVYTAVAWYQQKPGKAPKLLINSASKRYTGVPSRFSGSGSGTDFTLTISSLQPEDFATYYCQQHYSTPPTFGGGTKVEIK
notes: IgG1/Cκ
B6: 2126-Hu-L16 (antibody, IgG1, V domains shown)
VH: QVQLVQSGSELKKPGASVKVSCKASGYTFTDYSMHWVRQAPGQGLEWMGWINTETGEPTYADDFKGRFVFSLDTSVSTAYLQISSLKAEDTAVYFCVRVGRYDYAMDYWGQGTTVTVSS
VL: DIQMTQSPSSLSASVGDRVTITCKASQDVYTAVAWYQQKPGKAPKLLINSASYRPTGVPSRFSGSGSGTDFTLTISSLQPEDFATYYCQQHYSTPPTFGGGTKVEIK
notes: IgG1/Cκ
B7: 2126-Hu-L07 (antibody, IgG1, V domains shown)
VH: QVQLVQSGSELKKPGASVKVSCKASGYTFTDYSMHWVRQAPGQGLEWMGWINTETGEPTYADDFKGRFVFSLDTSVSTAYLQISSLKAEDTAVYFCVRVGRYDYAMDYWGQGTTVTVSS
VL: DIQMTQSPSSLSASVGDRVTITCKASQDVYTAVAWYQQKPGKAPKLLINSASDRYTGVPSRFSGSGSGTDFTLTISSLQPEDFATYYCQQHYSTPPTFGGGTKVEIK
notes: IgG1/Cκ
B8: 2126-Hu-L11 (antibody, IgG1, V domains shown)
VH: QVQLVQSGSELKKPGASVKVSCKASGYTFTDYSMHWVRQAPGQGLEWMGWINTETGEPTYADDFKGRFVFSLDTSVSTAYLQISSLKAEDTAVYFCVRVGRYDYAMDYWGQGTTVTVSS
VL: DIQMTQSPSSLSASVGDRVTITCKASQDVYTAVAWYQQKPGKAPKLLINSASQRYTGVPSRFSGSGSGTDFTLTISSLQPEDFATYYCQQHYSTPPTFGGGTKVEIK
notes: IgG1/Cκ
B9: 2126-Hu-L10 (antibody, IgG1, V domains shown)
VH: QVQLVQSGSELKKPGASVKVSCKASGYTFTDYSMHWVRQAPGQGLEWMGWINTETGEPTYADDFKGRFVFSLDTSVSTAYLQISSLKAEDTAVYFCVRVGRYDYAMDYWGQGTTVTVSS
VL: DIQMTQSPSSLSASVGDRVTITCKASQDVYTAVAWYQQKPGKAPKLLINSASNRYTGVPSRFSGSGSGTDFTLTISSLQPEDFATYYCQQHYSTPPTFGGGTKVEIK
notes: IgG1/Cκ
B10: 2126-Hu-L05 (antibody, IgG1, V domains shown)
VH: QVQLVQSGSELKKPGASVKVSCKASGYTFTDYSMHWVRQAPGQGLEWMGWINTETGEPTYADDFKGRFVFSLDTSVSTAYLQISSLKAEDTAVYFCVRVGRYDYAMDYWGQGTTVTVSS
VL: DIQMTQSPSSLSASVGDRVTITCKASQDVYTAVAWYQQKPGKAPKLLIYSASYRYTGVPSRFSGSGSGTDFTLTISSLQPEDFATYYCQQHYSTPPTFGGGTKVEIK
notes: IgG1/Cκ
B11: 2126-Hu-L15 (antibody, IgG1, V domains shown)
VH: QVQLVQSGSELKKPGASVKVSCKASGYTFTDYSMHWVRQAPGQGLEWMGWINTETGEPTYADDFKGRFVFSLDTSVSTAYLQISSLKAEDTAVYFCVRVGRYDYAMDYWGQGTTVTVSS
VL: DIQMTQSPSSLSASVGDRVTITCKASQDVYTAVAWYQQKPGKAPKLLINSASYRETGVPSRFSGSGSGTDFTLTISSLQPEDFATYYCQQHYSTPPTFGGGTKVEIK
notes: IgG1/Cκ
B12: 2126-Hu-L08 (antibody, IgG1, V domains shown)
VH: QVQLVQSGSELKKPGASVKVSCKASGYTFTDYSMHWVRQAPGQGLEWMGWINTETGEPTYADDFKGRFVFSLDTSVSTAYLQISSLKAEDTAVYFCVRVGRYDYAMDYWGQGTTVTVSS
VL: DIQMTQSPSSLSASVGDRVTITCKASQDVYTAVAWYQQKPGKAPKLLINSASERYTGVPSRFSGSGSGTDFTLTISSLQPEDFATYYCQQHYSTPPTFGGGTKVEIK
notes: IgG1/Cκ
B13: 2126-Hu-L14 (antibody, IgG1, V domains shown)
VH: QVQLVQSGSELKKPGASVKVSCKASGYTFTDYSMHWVRQAPGQGLEWMGWINTETGEPTYADDFKGRFVFSLDTSVSTAYLQISSLKAEDTAVYFCVRVGRYDYAMDYWGQGTTVTVSS
VL: DIQMTQSPSSLSASVGDRVTITCKASQDVYTAVAWYQQKPGKAPKLLINSASYRATGVPSRFSGSGSGTDFTLTISSLQPEDFATYYCQQHYSTPPTFGGGTKVEIK
notes: IgG1/Cκ

The experiment addresses T1, recombinant human HER2 extracellular domain protein (human, UniProt P04626 23-652).
T1 construct: range 23-652; Range is printed for the immunogen/panning protein; also called ErbB2; recombinant HER2 protein
Put plainly: BLI, Protein A capture.
As to B1, the dissociation constant (Kd) worked out at 13.9 nM, the koff was 0.000611 s⁻¹ and the kon came out at 43900 M⁻¹ s⁻¹.

In the case of B2, the dissociation constant Kd was 6.63 nM, the koff was 0.000659 s⁻¹ and the on-rate constant (kon) is 99400 M⁻¹ s⁻¹.

On to B3, for which the Kd was found to be 5.34 nM, the dissociation rate constant (koff) worked out at 0.000531 s⁻¹ and the on-rate constant (kon) is 99500 M⁻¹ s⁻¹.

As for B4, the dissociation constant Kd is 6.13 nM, the koff amounted to 0.000619 s⁻¹ and the kon was 101000 M⁻¹ s⁻¹.

On to B5, for which the dissociation constant Kd was found to be 5.11 nM, the koff was determined as 0.00049 s⁻¹ and the on-rate (kon) was 95900 M⁻¹ s⁻¹.

Take B6: the Kd was 4.38 nM, the koff amounted to 0.000464 s⁻¹ and the on-rate constant (kon) was determined as 106000 M⁻¹ s⁻¹.

Consider B7, for which the dissociation constant Kd turned out to be 6.46 nM, the off-rate constant (koff) amounted to 0.00061 s⁻¹ and the on-rate (kon) amounted to 94300 M⁻¹ s⁻¹.

Consider B8, for which the Kd was found to be 6.25 nM, the off-rate constant (koff) worked out at 0.000651 s⁻¹ and the kon was determined as 104000 M⁻¹ s⁻¹.

Regarding B9, the Kd is 5.38 nM, the koff was 0.000558 s⁻¹ and the kon amounted to 104000 M⁻¹ s⁻¹.

On to B10, for which the Kd worked out at 13.4 nM, the off-rate (koff) is 0.00139 s⁻¹ and the kon worked out at 104000 M⁻¹ s⁻¹.

B11: the Kd was 8.29 nM, the koff amounted to 0.000906 s⁻¹ and the kon stood at 109000 M⁻¹ s⁻¹.

In the case of B12, the dissociation constant Kd was 6.57 nM, the dissociation rate constant (koff) is 0.00062 s⁻¹ and the kon came to 94300 M⁻¹ s⁻¹.

In the case of B13, the Kd was 6.48 nM, the koff was determined as 0.000666 s⁻¹ and the kon came to 103000 M⁻¹ s⁻¹.

What is called Kd is the free concentration of one partner at which half of the binding sites on the other are occupied at equilibrium, for simple one-to-one binding. By koff is commonly meant a measure of how fast the partners let go of each other. For orientation: kon means the second-order rate constant of association.
